# B1: YER118C 8-21 (peptide)
# chain: RPTPRKPSRMATDH
# B2: YDR310C 204-217 (peptide)
# chain: RRGPGRPRKDASTS
# B3: YDR223W 12-25 (peptide)
# chain: RRKPHSPNKKKPKE
# B4: YOR322C 268-281 (peptide)
# chain: RSIPRGPDKNSLRV
# B5: YJL095W 1078-1091 (peptide)
# chain: RTEPSTPSRPVPPD
# B6: YDR330W 407-420 (peptide)
# chain: RVHPEPPNKPGITT
# B7: YLR183C 354-367 (peptide)
# chain: RVLPSKPKKSVKEN
# B8: YPL074W 335-348 (peptide)
# chain: RYKPTPPLKKRYDY
# B9: YGL197W 1382-1395 (peptide)
# chain: SAFPQSPIRAYGST
# Key:
# Assay in all cases: SPOT array
# [1] = molecular target: T1, Rvs167 SH3 (RV167_YEAST), P39743
# T1 chain: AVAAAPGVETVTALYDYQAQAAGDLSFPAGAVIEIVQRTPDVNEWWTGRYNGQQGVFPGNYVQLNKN
# [2] = molecular target: T2, Boi2 SH3 (BOI2_YEAST), P39969
# T2 chain: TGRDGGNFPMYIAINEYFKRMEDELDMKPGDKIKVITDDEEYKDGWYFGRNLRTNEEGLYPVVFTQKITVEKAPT
# [3] = molecular target: T3, Yfr024 SH3 (LSB3_YEAST), P43603
# T3 chain: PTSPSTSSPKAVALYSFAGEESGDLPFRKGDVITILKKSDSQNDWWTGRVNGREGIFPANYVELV
# [4] = molecular target: T4, Boi1 SH3 (BOI1_YEAST), P38041
# T4 chain: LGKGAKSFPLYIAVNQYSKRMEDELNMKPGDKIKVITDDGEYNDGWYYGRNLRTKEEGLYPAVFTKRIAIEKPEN
# [5] = molecular target: T5, Yhr016c SH3 (YSC84_YEAST), P32793
# T5 chain: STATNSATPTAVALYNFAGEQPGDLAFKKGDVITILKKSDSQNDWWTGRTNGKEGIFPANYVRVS
Binder,"normalised SPOT signal, Boehringer light units (BLU); mean over the file's lines of this peptide [1]","normalised SPOT signal, Boehringer light units (BLU); mean over the file's lines of this peptide [2]","normalised SPOT signal, Boehringer light units (BLU); mean over the file's lines of this peptide [3]","normalised SPOT signal, Boehringer light units (BLU); mean over the file's lines of this peptide [4]","normalised SPOT signal, Boehringer light units (BLU); mean over the file's lines of this peptide [5]"
B1,2100,74.7,16500,80.2,2650
B2,212,53.5,889,323,57.2
B3,38.5,198,693,148,113
B4,296,76.1,384,230,144
B5,15.7,8.2,7000,54.7,435
B6,55.3,76.2,271,122,250
B7,42.3,17.8,2620,156,196
B8,50.9,83.4,2110,25.5,148
B9,48.9,37.5,186,238,156
